Data published in paper PMC6495647, “Purification and interactions of the MucA’ and MucB proteins constituting the DNA polymerase RI”.

Experiments:
MucA' = target: T1, MucA' (plasmid pKM101 (expressed in E. coli …, UniProt Q79BK8 26-146)); experiment: SPR; MucA' alone; SPR (BIAcore 2000, SA chip): 20 mM HEPES pH 8.0, 50 mM K-glutamate, 10 mM Mg acetate, 5% glycerol, 0.1 mM EDTA, 2 mM DTT, 0.05% Surfactant P20 (1% P20 in MucB sample); temperature not stated; settings: protein: recombinant; tags: none stated (pYG8506, pET-16b based); chain copies: 2; label: 5'-biotin; single strand
T1 sequence: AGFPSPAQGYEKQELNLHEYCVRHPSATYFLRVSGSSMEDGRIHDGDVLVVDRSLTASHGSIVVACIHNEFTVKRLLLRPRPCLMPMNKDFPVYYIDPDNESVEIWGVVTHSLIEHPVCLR

MucB = target: T2, MucB (plasmid pKM101 (expressed in E. coli …, UniProt Q79BK7 1-421)); experiment: SPR; MucB 0.26 uM alone; 10 mM Mg acetate; SPR (BIAcore 2000, SA chip): 20 mM HEPES pH 8.0, 50 mM K-glutamate, 10 mM Mg acetate, 5% glycerol, 0.1 mM EDTA, 2 mM DTT, 0.05% Surfactant P20 (1% P20 in MucB sample); temperature not stated; settings: protein: recombinant; tags: none stated (untagged construct pYG8512); label: 5'-biotin; single strand
T2 sequence: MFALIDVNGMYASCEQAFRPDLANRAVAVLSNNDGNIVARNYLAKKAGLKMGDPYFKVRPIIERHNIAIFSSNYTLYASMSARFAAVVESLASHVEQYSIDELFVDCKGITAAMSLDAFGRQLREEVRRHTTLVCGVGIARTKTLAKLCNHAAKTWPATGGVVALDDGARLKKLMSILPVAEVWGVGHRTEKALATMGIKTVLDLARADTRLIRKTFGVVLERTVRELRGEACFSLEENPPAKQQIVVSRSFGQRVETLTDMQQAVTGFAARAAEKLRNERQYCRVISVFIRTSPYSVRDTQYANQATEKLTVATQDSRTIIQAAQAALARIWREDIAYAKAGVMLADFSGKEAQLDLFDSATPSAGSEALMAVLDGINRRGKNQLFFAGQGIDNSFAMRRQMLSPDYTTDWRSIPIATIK

B1: 73-mer ssDNA oligonucleotide (ssDNA)
DNA: GCGGCGGTTGAGTAGCTCTTCTTCCAGCACGTTTTCGCCGATAATACCGGGATCGACCACGCCATCCATTACC
MucA'
  binding result: no binding
MucB
  binding result: binds
